Data as given in patent US20180142030A1 (Bristol-Myers Squibb, published 2018).

Biological target: T1, recombinant human CD40 monomer (human, UniProt P25942 21-193)
T1 construct: also called huCD40-monomer; soluble human CD40
Assay: BLI (Octet RED); antibody supernatant captured on protein A sensors, huCD40-monomer in solution
Text: The closest matching human germline region sequence was selected for each mouse variable domain, and these human framework regions were used to replace murine frameworks in the “CDR graft” versions of the antibodies. Additional amino acid substitutions, such as framework back-mutations, were then made as necessary to restore the binding affinity of the humanized antibody. Further amino acid substitutions were made to eliminate sequence liabilities. The sequence relationships between the various forms of the antibodies of the present invention are provided at Table 6. The binding of various agonistic anti-huCD40 antibodies to soluble human CD40 was determined by Biolayer Interferometry (BLI) analysis using a Fortebio Octet RED (Rapid system—Extended Detection) label-free interaction analysis instrument. All studies were performed in 10 mM NaₓPO₄, 130 mM NaCl, 0.05% Surfactant P20 (pH 7.1) at 25° C. Briefly, anti-huCD40 antibody supernatants (diluted to 10 μg/ml or captured undiluted if supernatant concentration was less than 10 μg/ml) were captured on protein A coated biosensors (Pall Fortebio #18-5010) using a loading time of 90 s and shake speed of 1000 rpm. Supernatants were first screened for binding to 1 μM recombinant human CD40 monomer (huCD40-monomer) using 180 s association and dissociation times, at 1000 rpm, with two 15 s conditioning steps using 10 mM glycine pH 1.5 in between binding cycles.

T1 sequence (P25942 21-193 limits assumed): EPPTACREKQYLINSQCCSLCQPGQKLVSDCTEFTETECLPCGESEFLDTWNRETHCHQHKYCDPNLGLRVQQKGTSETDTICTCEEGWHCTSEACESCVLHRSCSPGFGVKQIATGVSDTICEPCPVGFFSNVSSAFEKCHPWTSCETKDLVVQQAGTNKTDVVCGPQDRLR

B1: 12D6 (parental) (antibody, V domains shown)
VH: EVQLQQSGPELEKPGASVKMSCKASGYSFTGYNMNWVKQSNGKSLEWIGNIDPYYGNTNYNQKFKGKATLTVDKSSSTAYLQLKSLTSEDSAVYYCARLGLQLYAMDYWGQGTSVTVSS
VL: DVVMTQTPLSLPVSLGDQASISCRSSQSLVHSNGNTYLHWYLQKPGQSPNLLIYKLTNRFFGVPDRFSGSGSGTDFTLKISRVEAEDLGVYFCSQSIHVPWTFGGGTKLEIK
notes: Mouse variable domains; also called 1802.3716.12D6.B1.E3; mAb 12D6
Q: B1 was tested. Which Kd did it give?
A: 0.0036 µM

B2: 12D6-03 (antibody, human IgG1, kappa, V domains shown)
VH: QVQLVQSGAEVKKPGASVKVSCKASGYTFTGYNMNWVRQAPGQGLEWMGNIDPYYGNTNYNQKFKGRVTMTTDTSTSTAYMELRSLRSDDTAVYYCARLGLQLYAMDYWGQGTTVTVSS
VL: DIVMTQTPLSLPVTPGEPASISCRSSQSLVHSNGNTYLHWYLQKPGQSPQLLIYKLTNRFFGVPDRFSGSGSGTDFTLKISRVEAEDVGVYYCSQSIHVPWTFGGGTKVEIKR
notes: Humanized
Q: Which Kd does the source give for B2 here?
A: 0.0048 µM

B3: 12D6-22 (antibody, human IgG1, kappa, V domains shown)
VH: QVQLVQSGAEVKKPGASVKVSCKASGYTFTGYNMNWVRQAPGQGLEWMGNIDPYYGNTNYNQKFKGRVTMTTDTSTSTAYMELRSLRSDDTAVYYCARLGLQLYAMDYWGQGTTVTVSS
VL: DIVMTQTPLSLPVTPGEPASISCRSSQSLVHSNANTYLHWYLQKPGQSPQLLIYKLTNRFFGVPDRFSGSGSGTDFTLKISRVEAEDVGVYYCSQSIHVPWTFGGGTKVEIKR
notes: Humanized; IgG1f
Q: With B3 as the binder, how does the Kd read?
A: 0.0036 µM

B4: 12D6-23 (antibody, human IgG1, kappa, V domains shown)
VH: QVQLVQSGAEVKKPGASVKVSCKASGYTFTGYNMNWVRQAPGQGLEWMGNIDPYYGNTNYNQKFKGRVTMTTDTSTSTAYMELRSLRSDDTAVYYCARLGLQLYALDYWGQGTTVTVSS
VL: DIVMTQTPLSLPVTPGEPASISCRSSQSLVHSNGNTYLHWYLQKPGQSPQLLIYKLTNRFFGVPDRFSGSGSGTDFTLKISRVEAEDVGVYYCSQSIHVPWTFGGGTKVEIKR
notes: Humanized; IgG1f
Q: How did the Kd turn out when B4 was run?
A: 0.0043 µM

B5: 12D6-24 (antibody, human IgG1, kappa)
heavy: not shown
light: DIVMTQTPLSLPVTPGEPASISCRSSQSLVHSNANTYLHWYLQKPGQSPQLLIYKLTNRFFGVPDRFSGSGSGTDFTLKISRVEAEDVGVYYCSQSIHVPWTFGGGTKVEIKRTVAAPSVFIFPPSDEQLKSGTASVVCLLNNFYPREAKVQWKVDNALQSGNSQESVTEQDSKDSTYSLSSTLTLSKADYEKHKVYACEVTHQGLSSPVTKSFNRGEC
notes: Humanized; IgG1f; also called 12D6-24 IgG1f; mAb 12D6-24 human IgG1f (control)
Q: How did the Kd turn out when B5 was run?
A: 0.0056 µM

B6: 5F11-17 (antibody, human IgG1, kappa)
heavy: not shown
light: DIVMTQSPDSLAVSLGERATINCRASKNVDSYGNSFMHWYQQKPGQPPKLLIYRASNLESGVPDRFSGSGSGTDFTLTISSLQAEDVAVYYCQQSNEDPLTFGQGTKLEIKRTVAAPSVFIFPPSDEQLKSGTASVVCLLNNFYPREAKVQWKVDNALQSGNSQESVTEQDSKDSTYSLSSTLTLSKADYEKHKVYACEVTHQGLSSPVTKSFNRGEC
notes: Humanized; IgG1f
Q: For B6, which Kd is on record?
A: 0.0084 µM

B7: 5F11-23 (antibody, human IgG1, kappa)
heavy: not shown
light: DIVLTQSPDSLAVSLGERATISCRASKNVDSYGNSFMHWYQQKPGQPPKLLIYRASNLESGVPDRFSGSGSGTDFTLTISSLQAEDVAVYYCQQSNEDPLTFGQGTKLEIKRTVAAPSVFIFPPSDEQLKSGTASVVCLLNNFYPREAKVQWKVDNALQSGNSQESVTEQDSKDSTYSLSSTLTLSKADYEKHKVYACEVTHQGLSSPVTKSFNRGEC
notes: Humanized; IgG1f
Q: How did the Kd turn out when B7 was run?
A: 0.0049 µM

B8: 5F11-45 (antibody, human IgG1, kappa)
heavy: not shown
light: DIVLTQSPDSLAVSLGERATINCRASKNVDSYGNSFMHWYQQKPGQPPKLLIYRASNLESGVPDRFSGSGSGTDFTLTISSLQAEDVAVYYCQQSNEDPLTFGQGTKLEIKRTVAAPSVFIFPPSDEQLKSGTASVVCLLNNFYPREAKVQWKVDNALQSGNSQESVTEQDSKDSTYSLSSTLTLSKADYEKHKVYACEVTHQGLSSPVTKSFNRGEC
notes: Humanized; IgG1f
Q: B8 was tested. Which Kd did it give?
A: 0.0123 µM

B9: 19G3 (parental) (antibody, V domains shown)
VH: EVQLVESGGGLVKPGGSLKLSCAASGFTFSSYAMSWVRQSPEKRLEWVAEISGGGSYTYYPDTVTGRFTISRDNAKNTLYLEMSSLRSEDTAMYYCASRAYWGQGTLVTVSA
VL: DVLMTQTPLSLPVSLGDQASISCRSSQSIVHSNGNTYFEWYLQKPGQSPKLLIYKVSNRFSGVPDRFSGSGSGTDFTLKISRVEAEDLGVYYCFQGSHVPYTFGGGTKLEIK
notes: Mouse variable domains; also called 1802.3582.19G3.F10.E1; mAb 19G3
Q: Which Kd does the source give for B9 here?
A: 0.87 µM

B10: 19G3-11 (antibody, human IgG1, kappa, V domains shown)
VH: EVQLVESGGGLVKPGGSLRLSCAASGFTFSSYAMSWVRQAPGKGLEWVSEISGGGSYTYYPDTVTGRFTISRDNAKNSLYLQMNSLRAEDTAVYYCASRAYWGQGTLVTVSS
VL: DIVMTQTPLSLPVTPGEPASISCRSSQSIVHSNGNTYFEWYLQKPGQSPQLLIYKVSNRFSGVPDRFSGSGSGTDFTLKISRVEAEDVGVYYCFQGSHVPYTFGGGTKVEIKR
notes: Humanized; IgG1f
Q: How did the Kd turn out when B10 was run?
A: 0.85 µM

B11: 19G3-22 (antibody, human IgG1, kappa, V domains shown)
VH: EVQLVESGGGLVKPGGSLRLSCAASGFTFSSYAMSWVRQAPGKGLEWVSEISGGGSYTYYPDTVTGRFTISRDNAKNSLYLQMNSLRAEDTAVYYCASRAYWGQGTLVTVSS
VL: DIVMTQTPLSLPVTPGEPASISCRSSQSIVHSQGNTYFEWYLQKPGQSPQLLIYKVSNRFSGVPDRFSGSGSGTDFTLKISRVEAEDVGVYYCFQGSHVPYTFGGGTKVEIKR
notes: Humanized; IgG1f
Q: How did the Kd turn out when B11 was run?
A: 0.099 µM

B12: 19G3-23 (antibody, human IgG1, kappa, name in Kabat numbering, V domains shown)
VH: EVQLVESGGGLVKPGGSLRLSCAASGFTFSSYAMSWVRQAPGKGLEWVSEISGGGSYTYYPDTVTGRFTISRDNAKNSLYLQMNSLRAEDTAVYYCASRAYWGQGTLVTVSS
VL: DIVMTQTPLSLPVTPGEPASISCRSSQSIVHSNANTYFEWYLQKPGQSPQLLIYKVSNRFSGVPDRFSGSGSGTDFTLKISRVEAEDVGVYYCFQGSHVPYTFGGGTKVEIKR
notes: Heavy chain inferred from the identical VH description (VH3-21 S94R) of 19G3-11; Light chain is the VKII O11 CDR graft of 19G3-11 with G29A
Q: B12 was tested. Which Kd did it give?
A: 1.3 µM

B13: 5G7 (parental) (antibody, V domains shown)
VH: EVLLQQSGPELVKPGASVKIPCKASGYKFTDYNMDWVKQSHGKSLEWIGDINPKNGGTIYNLKFKGKATLTVDMSSSTAYMELRSLTSEDTAVYYCVRRMDYWGQGTSVTVSS
VL: DIQMTQTTSSLSASLGDRVTISCRASQDISNYLNWYQQKPDGTVKLLIYYISRLHSGVPSRFRGSGSGTDFSLTISNLEQEDIATYFCQQGNTLPYTFGGGTNLEIK
notes: Mouse variable domains; also called 1802.3583.5G7.F12.G3; mAb 5G7
Q: How did the Kd turn out when B13 was run?
A: 0.089 µM

B14: 5G7-25 (antibody, human IgG1, kappa, V domains shown)
VH: QVQLVQSGAEVKKPGASVKVSCKASGYTFTDYNMDWVRQAPGQGLEWMGDINPKNAGTIYNLKFKGRVTLTVDTSTSTAYMELRSLRSDDTAVYYCVRRMDYWGQGTTVTVSS
VL: DIQMTQSPSSLSASVGDRVTITCRASQDISNYLNWYQQKPGKVPKLLIYYISRLHSGVPSRFSGSGSGTDFTLTISSLQPEDVATYYCQQGNTLPYTFGGGTKVEIKR
notes: Humanized; IgG1f
Q: With B14 as the binder, how does the Kd read?
A: 0.069 µM

B15: 5G7-22 (antibody, human IgG1, kappa, V domains shown)
VH: QVQLVQSGAEVKKPGASVKVSCKASGYTFTDYNMDWVRQAPGQGLEWMGDINPKNGGTIYNLKFKGRVTLTTDTSTSTAYMELRSLRSDDTAVYYCVRRMDYWGQGTTVTVSS
VL: DIQMTQSPSSLSASVGDRVTITCRASQDISNYLNWYQQKPGKVPKLLIYYISRLHSGVPSRFSGSGSGTDFTLTISSLQPEDVATYYCQQGNTLPYTFGGGTKVEIKR
notes: Humanized; IgG1f
Q: Which Kd does the source give for B15 here?
A: 0.05 µM

B16: 5G7-28 (antibody, human IgG1, kappa, name in Kabat numbering, V domains shown)
VH: QVQLVQSGAEVKKPGASVKVSCKASGYTFTDYNMDWVRQAPGQGLEWMGDINPKNAGTIYNLKFKGRVTLTVDTSTSTAYMELRSLRSDDTAVYYCVRRLDYWGQGTTVTVSS
VL: DIQMTQSPSSLSASVGDRVTITCRASQDISNYLNWYQQKPGKVPKLLIYYISRLHSGVPSRFSGSGSGTDFTLTISSLQPEDVATYYCQQGNTLPYTFGGGTKVEIKR
Q: How did the Kd turn out when B16 was run?
A: 0.23 µM

B17: 8E8 (parental) (antibody, V domains shown)
VH: QVQFQQSGAELARPGASVKLSCKASGYTFTSYWMQWVKQRPGQGLEWIGTIYPGDGDSRYNQKFKGKALLTADKSSSIAYMQLNSLASEDSAVYFCARFSLYDGYPYYFDYWGQGTTLTVSS
VL: DVVMTQTPLSLPVSLGDQASISCRSSQSLVHRNGNTYLHWYLQKPGQSPKLLIYRVSNRFSGVPDRFSGSGSGTDFTLKISRVEAEDLGIYFCSQSTHFPYTFGGGTKLEIK
notes: Mouse variable domains; also called 1802.3583.8E8.C10.G2; mAb 8E8
Q: With B17 as the binder, how does the Kd read?
A: 0.085 µM

B18: 8E8-62 (antibody, human IgG1, kappa, V domains shown)
VH: QVQFVQSGAEVKKPGSSVKVSCKASGYTFTSYWMQWVRQAPGQGLEWMGTIYPGDGDSRYNQKFKGKALLTADKSTSTAYMELSSLRSEDTAVYYCARFSLYEGYPYYFDYWGQGTTVTVSS
VL: DIVMTQSPLSLPVTPGEPASISCRSSQSLVHRNGNTYLHWYLQKPGQSPQLLIYRVSNRFSGVPDRFSGSGSGTDFTLKISRVEAEDVGVYYCSQSTHFPYTFGGGTKVEIKR
notes: Humanized; IgG1f
Q: B18 was tested. Which Kd did it give?
A: 0.031 µM

B19: 8E8-56 (antibody, human IgG1, kappa, V domains shown)
VH: QVQFVQSGAEVKKPGSSVKVSCKASGYTFTSYWMQWVRQAPGQGLEWMGTIYPGDGDSRYNQKFKGKALLTADKSTSTAYMELSSLRSEDTAVYYCARFSLYDGYPYYFDYWGQGTTVTVSS
VL: DIVMTQSPLSLPVTPGEPASISCRSSQSLVHRNGNTYLHWYLQKPGQSPQLLIYRVSNRFSGVPDRFSGSGSGTDFTLKISRVEAEDVGVYYCSQSTHFPYTFGGGTKVEIKR
notes: Humanized; IgG1f
Q: How did the Kd turn out when B19 was run?
A: 0.082 µM

B20: 8E8-66 (antibody, human IgG1, kappa, V domains shown)
VH: QVQFVQSGAEVKKPGSSVKVSCKASGYTFTSYWMQWVRQAPGQGLEWMGTIYPGDGDSRYNQKFKGKALLTADKSTSTAYMELSSLRSEDTAVYYCARFSLYDGYPYYFDYWGQGTTVTVSS
VL: DIVMTQSPLSLPVTPGEPASISCRSSQSLVHRNANTYLHWYLQKPGQSPQLLIYRVSNRFSGVPDRFSGSGSGTDFTLKISRVEAEDVGVYYCSQSTHFPYTFGGGTKVEIKR
Q: How did the Kd turn out when B20 was run?
A: 0.082 µM
